Assay results reported in patent publication US10052364B2, “Osteocalcin as a treatment for cognitive disorders” (THE TRUSTEES OF COLUMBIA UNIVERSITY IN THE CITY OF NEW YORK, priority 2013, dated 2018).
No end group written: not given here.

B1: leptin: adipocyte-derived hormone, positive control known to cross the BBB (protein, UniProt P41160 22-167, looked up)
Leptin: VPIQKVQDDTKTLIKTIVTRINDISHTQSVSAKQRVTGLDFIPGLHPILSLSKMDQTLAVYQQVLTSLPSQNVLQIANDLENLRDLLHLLAFSKSCSLPQTSGLQKPESLDGVLEASLYSTEVVALSRLQGSLQDILQQLDVSPEC

Experiments:
[1] = test system: mouse primary hindbrain neurons (MPHN); assay: Calcium flux in primary hindbrain neurons; type: cell-based; conditions: MPHN treated with undercarboxylated or carboxylated osteocalcin
Protocol: For calcium imaging, primary hindbrain neurons seeded on 12 mm coverslips were allowed the appropriate time to form structural networks. These cultures were washed with HBSS and loaded with 2.5 μM FURA-2, AM calcium indicator for 45 minutes at room temperature, according to the manufacturer's protocol. Cells were then washed to remove excess indicator and incubated for 30 minutes to allow internalized esters to become de-esterified. 30 ng/ml of osteocalcin was prepared with the control buffer of 1×HBBS supplemented with 10 mM HEPES buffer and 2 mM CaCl2. Using a Zeiss microscope with a perfusion system, coverslips were first perfused with control and osteocalcin. After each stimulation, cells were depolarized with 50 mM KCl to determine the percentage of live cells being imaged. All treatments were recorded using two-photon laser scanning microscopy by Prairie Technologies and analyzed by Z axis profile plotting using ImageJ.
To determine if osteocalcin acts directly on neurons to modulate neurotransmitter synthesis, several types of assays were performed. First, brainstem and midbrain explants from WT and Gprc6a^−/− mice were generated. […] Third, to further confirm that osteocalcin signals in neurons of the hindbrain, calcium flux in MPHN treated with undercarboxylated or carboxylated osteocalcin (FIG. 3F) was measured. […]

[2] = Positive control for blood brain barrier crossing: subcutaneous leptin infusion in ob/ob mice, content measured in brain; type: in vivo, mouse; conditions: subcutaneous infusion 50 ng/hour, seven days, 3 month-old ob/ob mice
Protocol: FIG. 3. Osteocalcin binds to neurons in the brain. (A) Measurement of the total osteocalcin in 3 month-old Osteocalcin^−/− mice infused subcutaneously for 7 days with either uncarboxylated osteocalcin (300 ng/hour, right panel) or PBS (left panel). Osteocalcin levels were measured in bone, serum, and different parts of the brain (cortex, midbrain, hypothalamus, brainstem, and cerebellum). (B) Subcutaneous infusion of leptin ([…], right panel) or PBS (left panel) for 7 days in ob/ob mice. Leptin levels were measured in serum, cortex, midbrain, hypothalamus, brainstem, and cerebellum. […]
Osteocalcin^−/−, Gprc6a^−/−, Osteocalcin-mCherry, and Osteocalcin floxed mice have been previously described (Ducy et al., 1996, Nature 382:448-452; Oury et al., 2011, Cell 144:796-809). Mouse genotypes were determined by PCR. […] Leptin and osteocalcin content in sera and tissues were determined by ELISA.
To understand how this behavioral phenotype develops, whether osteocalcin crosses the blood brain barrier (BBB) was tested by installing pumps that subcutaneously delivered vehicle or uncarboxylated osteocalcin (50 ng/hour) in three-month-old Osteocalcin^−/− mice. […] Seven days later, osteocalcin and leptin content were measured in blood, bone, and in various parts of the brain in Osteocalcin−/− and ob/ob mice, respectively. […]

[3] = test system: brainstem and midbrain explants from WT and Gprc6a-/- mice; assay: Gene expression (qPCR) in brainstem and midbrain explants; type: cell-based, mouse; conditions: leptin, WT or Gprc6a-/- brainstem explants
Protocol: For gene expression studies, RNA was isolated from primary neurons or tissue using TRIZOL® (Invitrogen). cDNA synthesis was performed following a standard protocol from Invitrogen and qPCR analyses were done using specific quantitative PCR primers from SABiosciences (www.sabiosciences.com/RT2PCR.php).
Brains were dissected and incubated for 30 minutes in ice cold oxygenated artificial cerebrospinal fluid (ACSF). Brains were then sliced at 500 μm at the midbrain, −1.55 to −2.35 mm from the bregma, and at the level of the brainstem, from −4.04 to −4.48 mm and from −4.60 to −5.20 mm from the bregma, to include the median and dorsal raphe, respectively. These slices were incubated in ACSF for 1 h, constantly oxygenated (95% 02 and 5% CO2) for 4 h, after which they were treated with either osteocalcin (10 ng/ml) or PBS for four hours. Expression of Tph2, TH, GAD1, GAD2, and Ddc was measured by qPCR.
To determine if osteocalcin acts directly on neurons to modulate neurotransmitter synthesis, several types of assays were performed. First, brainstem and midbrain explants from WT and Gprc6a^−/− mice were generated. Brains were sliced (500 μm) at the level of the median and dorsal raphe of the brainstem (from −4.04 to −4.48 mm and from −4.60 to −5.20 mm, respectively), so that they would be enriched in serotonin-producing neurons, as well as at the level of substantia nigrae and ventral tegmental areas (VTA) of the midbrain (from −1.55 to −2.35 mm and from −2.55 to −3.25 mm, respectively). Enrichment in serotoninergic and catecholaminergic neurons in these explants was verified by their high Tph2 and Th expression. While leptin, used here as a positive control, reduced, as it should, Tph2 expression in WT or Gprc6a^−/− brainstem explants, osteocalcin (3 ng/ml) increased expression of this gene 2.5 fold in both WT and Gprc6a^−/− explants. (FIG. 3D). Additionally, osteocalcin increased Th expression in midbrain explants and decreased Gad1 expression in both WT and in Gprc6a^−/− hindbrain explants (FIG. 3D). Second, the cultured WT and Gprc6a^−/− mouse primary hindbrain neurons (MPHN) were treated with osteocalcin (3 ng/ml). […] Third, to further confirm that osteocalcin signals in neurons of the hindbrain, calcium flux in MPHN treated with undercarboxylated or carboxylated osteocalcin (FIG. 3F) was measured. […] Moreover, osteocalcin inhibits the action potential frequency of the GABAergic interneurons of the hindbrain (FIG. 3H).

Molecule | calcium fluxes in primary hindbrain neurons [1] | leptin content in parts of the brain [2] | Tph2 expression in brainstem explants (positive control) [3]
carboxylated osteocalcin: Carboxylated (Gla) form of osteocalcin used as comparison in the calcium flux assay (YLGASVPSPDPLEPTREQCELNPACDELSDQYGLKTAYKRIYGITI; ends and bridges not checked; also: gamma-carboxylated (Gla) form, places not given here; UniProt P86546 50-95, looked up) [reference compound] | not |  | 
B1 |  | could be detected in the brainstem and hypothalamus | reduced
